Results on one substance are retold here after patent US9301917B2, “Sustained-release pharmaceutical composition” (Kyoto University, priority 2010, dated 2016).

Data set [1] is described as follows: Influence of formulation procedure on drug release rate in vivo (Example 3). As to conditions: 100 μL to dorsal subcutis of mice, 1 hour; lysozyme 5 mg/mL, sucrose 0.25 M, atelocollagen 3% [w/v]; different mixing orders. The protocol:
The following three kinds of ingredients were mixed in different orders and formulated as shown in the following items a) to d): lysozyme (MW: 14 kDa); sucrose; and atelocollagen (product name: KOKEN ATELOCOLLAGEN IMPLANT).
Each of the formulations was prepared so that the final concentrations of lysozyme, sucrose, and atelocollagen were 5 mg/mL, 0.25 M, and 3% [w/v], respectively.
100 μL of each of the formulations according to the above-mentioned items a) to d) were administered to the dorsal subcutis of mice. One hour later, the formulation that underwent gelation at a body temperature was taken out, and the amount of the lysozyme remaining in the gel was measured by HPLC to calculate the release amount of the lysozyme.

Data set [2] is described as follows: Influence of sugar on drug release from collagen in vitro (Example 1). It counts as physicochemical. As to conditions: lysozyme 2 mg/mL, atelocollagen 3% [w/v], sucrose 0.05 M vs no sucrose; PBS external liquid, 37° C., HPLC. The protocol:
The influence of a sugar on drug release from a collagen was confirmed through use of lysozyme (final concentration: 2 mg/mL) (Sigma-Aldrich Corporation) as a drug.
Lysozyme was dissolved in a physiological buffer (PBS, pH 7.4) containing sucrose (final concentration: 0.05 M) or a physiological buffer containing no sucrose. After that, the solution and an atelocollagen solution (final concentration: 3% [w/v]) (product name: KOKEN ATELOCOLLAGEN IMPLANT) were mixed and formulated.
Conditions for the measurement were as follows: • Initial eluent: 30% acetonitrile solution containing 0.1% triethylamine (TEA) • Final eluent: concentration-gradient elution with 45% acetonitrile solution containing 0.1% TEA • rate: 1 mL/min • Elution time: 30 minutes • Detection wavelength: 220 nm

Take lysozyme: in data set [1], the “release amount of the lysozyme in vivo” value is “varied depending on a change in mixing procedure”. For the same substance, the “amount of the lysozyme released into the external liquid” value in data set [2] is reported as “large in the case of containing sucrose as compared to the case of containing no sucrose”.
